B1: CAR1, GPRC5D chimeric antigen receptor (CAR 1 (VL-VH)), expressed on human T cells (protein, part only; not given: CAR backbone and scFv linker, not shown: small tags and cut ends)
chain, part: SSELTQDPAASVALGQTVRITCQGDSVRTYYAGWYQQKPGQAPVLVIYGKNHRPSGIPDRFSGSTSGNTASLTITGVQAEDEADYYCNSRDSSANPVFGGGTKVTVLQVQLVQSGAEVKKPGASVKVSCKASGYTFTSYYMHWVRQAPGQGLEWMGWINPNSGGTNYAQKFQGRVTITADKSTSTAYMELNSLRAEDTAVYYCVRSKGRAARNYYYMDVWGKGTTVTVSS
B2: CAR2, GPRC5D chimeric antigen receptor (CAR 2 (VL-VH)), expressed on human T cells (protein, part only; not given: CAR backbone and scFv linker, not shown: small tags and cut ends)
chain, part: SSELTQDPAASVALGQTVKITCQGDSLRRYFASWYQQKPGQAPTLVTYGKNRRPSGVPDRLSGSSSGDTASLTITGAQAEDEGDYYCNSRDRSGTVVFGGGTKLTVLEVQLVESGGGVVQPGRSLRLSCAASGFTFSSYAMSWVRQAPGKGLEWVSAISGSGGSTYYAGSVKGRFTISRDNSKNTLYLQMNSLRAEDTAVYYCARDLYGYRYYYYGMDVWGQGTMVTVSS

Target: G protein-coupled receptor class C group 5 member D (GPRC5D) on tumor cells (MM.1S, RPMI8226, NCI-H929) (human) (UniProt Q9NZD1)
Sequence of UniProt Q9NZD1 (Q9NZD1 whole entry): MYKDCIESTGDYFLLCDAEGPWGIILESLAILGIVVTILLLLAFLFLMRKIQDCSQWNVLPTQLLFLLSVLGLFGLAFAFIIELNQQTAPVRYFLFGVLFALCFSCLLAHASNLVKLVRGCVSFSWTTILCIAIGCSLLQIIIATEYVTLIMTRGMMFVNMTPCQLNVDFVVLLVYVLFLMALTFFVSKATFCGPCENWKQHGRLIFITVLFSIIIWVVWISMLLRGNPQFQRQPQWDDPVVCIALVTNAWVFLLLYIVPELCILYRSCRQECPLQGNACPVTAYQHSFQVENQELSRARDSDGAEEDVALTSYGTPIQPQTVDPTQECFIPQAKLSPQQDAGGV
Experiment: cell-based or functional assay

| Binder | % survival of MM.1S-ffluc cells, luciferase cytotoxicity assay, 24 h, E:T 1:1 [%] | % survival of MM.1S-ffluc cells, luciferase cytotoxicity assay, 24 h, E:T 1:2 [%] | % survival of MM.1S-ffluc cells, luciferase cytotoxicity assay, 24 h, E:T 1:4 [%] | % survival of RPMI8226-ffluc cells, luciferase cytotoxicity assay, 24 h, E:T 1:1 [%] | % survival of RPMI8226-ffluc cells, luciferase cytotoxicity assay, 24 h, E:T 1:2 [%] | % survival of RPMI8226-ffluc cells, luciferase cytotoxicity assay, 24 h, E:T 1:4 [%] | % survival of RPMI8226-ffluc cells, luciferase cytotoxicity assay, 24 h, E:T 1:8 [%] | % survival of MM.1S-ffluc cells, luciferase cytotoxicity assay, 24 h, E:T 1:8 [%] |
| --- | --- | --- | --- | --- | --- | --- | --- | --- |
| B1 | 20 | 60 | 88 | 12 | 40 | 70 | 90 |  |
| B2 | < 5 | 15 | 35 | 3 | 10 | 25 | 50 | 85 |
